Legend:
Karpas 299 = assay: Flow cytometry binding to endogenous cell line Karpas 299; assay type: cell-based, human; parameters: key to binding to Karpas 299 by flow cytometry: (−): No binding; (+): Weak binding; (++): Moderate binding; (+++): Strong binding; settings: for binding to Karpas 299 by flow cytometry: primary antibody 1 ug/ml
Protocol: (§1) Staining for flow cytometry was performed in 1× cold PBS with 0.5% BSA. Primary antibodies (1 ug/ml) were incubated with live cells on ice for 30 minutes, after a brief wash, cells were incubated with Alexa Fluro® 488-conjugated anti-human IgG secondary antibody @1:1000 (709-546-149, Jackson ImmunoResearch). Acquisition of the data was performed on a MACSQuant® Flow Cytometers (Miltenyi Biotec) and analyzed with FlowJo software.
(§2) Over 1,000 hits were identified that bind strongly to CHO-human IL1RAP, but not parental CHO cells. 68 clones were selected for molecular cloning. Based on unique CDR3 sequences from the heavy chain variable domain, 35 antibodies from 13 families were confirmed by binding in IL1RAP positive cell lines EOL1 and Karpas 299 (see Table 8) by flow cytometry (MACSQuant® www.miltenybiotec.com).

MOLT3 = assay: Flow cytometry binding to endogenous cell line MOLT3; assay type: cell-based; parameters: key: (−): No binding; (+): Weak binding; (++): Moderate binding; (+++): Strong binding; settings: primary antibody 1 ug/ml
Protocol: as §1

recombinant human IL1RAP = biological target: T1, recombinant human IL1RAP (Homo sapiens, UniProt Q9NPH3); assay: Binding competition binning on Octet; settings: Protein A biosensors
T1 construct: MBP-IL1RAP(S21-T367)-; 8xHis (C); made in house; host or cells: CHO (ExpiCHO transient expression)
Protocol: Binding Competition binning: Binding competition among different antibodies was determined using a real-time, interferometry assay on an Octet Red™ instrument with Protein A-conjugated biosensors. To assess whether two antibodies competed for binding to a recombinant IL1RAP protein, the assay was performed as follows. Protein A biosensors were first submerged into wells containing 10 ug/mL of individual monoclonal antibodies for 5 minutes. Following the capture step, the biosensors were dipped briefly (15 seconds) into buffer and then any unoccupied sites on the biosensor were saturated by submerging them for 5 minutes into wells containing 100 ug/mL of an irrelevant monoclonal antibody. The Octet™ biosensors were then dipped briefly (15 seconds) in buffer before immersion for 1 minute into wells containing recombinant IL1RAP. The biosensors were dipped briefly (15 seconds) in buffer before immersion for 1 minute into wells containing a second recombinant antibody.
For the control case where the second antibody was the same as the first, there was no increase in signal, because there was no additional binding to the recombinant target.
For the control case where buffer was used instead of the first antibody, no recombinant target bound the non-quenching antibody on the biosensor and no second antibody bound the biosensor.
Selected antibodies were evaluated in pairs for their ability to simultaneously bind recombinant human IL1RAP. The analysis was performed by Octet™ loaded with Protein A Biosensors. A total of five different bins were determined as follows.

EOL-1 = assay: Flow cytometry binding to endogenous cell line EOL-1; assay type: cell-based, human; parameters: key to binding to EOL-1 by flow cytometry: (−): No binding; (+): Weak binding; (++): Moderate binding; (+++): Strong binding; settings: for binding to EOL-1 by flow cytometry: primary antibody 1 ug/ml
Protocol: as §1, §2

rat IL1RAP = biological target: T2, rat IL1RAP (Rattus norvegicus, UniProt Q63621); assay: Flow cytometry binding to 293 cells expressing rat IL1RAP; assay type: cell-based; settings: 1 ug/ml
T2 construct: Met1-Val570; host or cells: HEK-293T
Protocol: (§3) 293T cell line was purchased from American Type Culture Collection (ATCC). 293T cells expressing human, Macaca fascicularis, rat, and mouse IL1RAP were maintained in DMEM medium (Invitrogen) with 10% fetal bovine serum (FBS) (Sigma) in the presence of 2 ug/ml puromycin (Invitrogen).
as §1

DMS79 = assay: Flow cytometry binding to endogenous cell line DMS79; assay type: cell-based; parameters: key to binding to DMS79 by flow cytometry: (−): No binding; (+): Weak binding; (++): Moderate binding; (+++): Strong binding
Protocol: as §1

IL-33 signaling = IL-33 signaling reporter cell assay (HEK-Blue IL-33 cells); assay type: cell-based; settings: antibody 1-10 μg/ml, IL-33 0.5 ng/ml
Protocol: FIGS. 7A and 7B show blockage of IL-33 signaling by anti-IL1RAP antibodies. HEK-Blue IL-33 cells (Invivogen, CA) were harvested and plated in technical duplicates at a density of 50,000 cells per well in a 96-well plate. Antibodies, or a corresponding human IgG1 control antibody, was added to the wells in a serial dilution starting at 10 μg/ml (FIG. 7A), or a concentration of 1 and 10 μg/ml (FIG. 7B). After incubating cells with antibodies for 30 minutes, IL-33 was added to a final concentration of 0.5 ng/ml, and the plate was incubated overnight. 24 hours later, substrate was added to the supernatants, and samples were analyzed for absorbance at 620 nm. CBIgG1 (anti-hen egg lysozyme antibody, CrownBio™) was included as a negative control.
(§4) HEK-Blue IL-33 cells (Invivogen, CA) were harvested and plated in technical duplicates at a density of 50,000 cells per well in a 96-well plate. antibodies, or a corresponding human IgG1 control antibody was added to the wells in a concentration range of […]. After incubating cells with antibodies for 30 minutes, IL-33 was added to a final concentration of 0.5 ng/ml, and the plate was incubated overnight. To examine whether any of the antibodies were able to induce ST2 activation in the absence of IL-33, samples were incubated with 10 μg/mL antibody without addition of the ligand. The following day, substrate was added to the supernatants, and samples were analyzed for absorbance at 620 nm.

IL-1α signaling = assay: IL-1 signaling reporter cell assay, IL-1α; assay type: cell-based; settings: serial dilution of antibody
Protocol: as §4, with “IL-1β” for “IL-33”, “plate. IL1RAP” for “plate.”, “IL-1R” for “ST2”, “IL-1β,” for “IL-33,”
In addition, serial dilution of IL1RAP antibodies was performed to determine EC50 against IL-1β and IL-1α (FIGS. 6B and 6C). Many of these antibodies, including 37E10_15B5 and 44E5_15C5 can block IL-1β and IL-1α signaling with subnanomolar EC50.

H69 = assay: Flow cytometry binding to endogenous cell line H69; assay type: cell-based; parameters: key: (−): No binding; (+): Weak binding; (++): Moderate binding; (+++): Strong binding; settings: primary antibody 1 ug/ml
Protocol: as §1

IL-1β signaling = assay: IL-1 signaling reporter cell assay (HEK-Blue IL-1β cells), IL-1β; assay type: cell-based; settings: for inhibition of IL1R1 / IL-1 signaling: HEK-Blue IL-1β cells, antibody 1-10 pg/ml, IL-1β 0.5 ng/ml
Protocol: as §4, with “IL-1β” for “IL-33”, “plate. IL1RAP” for “plate.”, “IL-1R” for “ST2”, “IL-1β,” for “IL-33,”

mouse IL1RAP = biological target: T3, mouse IL1RAP (Mus musculus, UniProt Q61730); assay: Flow cytometry binding to 293 cells expressing mouse IL1RAP; assay type: cell-based; settings: 1 ug/ml
T3 construct: Met1-Val570; host or cells: HEK-293T
Protocol: as §3, §1

T2 sequence (Q63621 21-570): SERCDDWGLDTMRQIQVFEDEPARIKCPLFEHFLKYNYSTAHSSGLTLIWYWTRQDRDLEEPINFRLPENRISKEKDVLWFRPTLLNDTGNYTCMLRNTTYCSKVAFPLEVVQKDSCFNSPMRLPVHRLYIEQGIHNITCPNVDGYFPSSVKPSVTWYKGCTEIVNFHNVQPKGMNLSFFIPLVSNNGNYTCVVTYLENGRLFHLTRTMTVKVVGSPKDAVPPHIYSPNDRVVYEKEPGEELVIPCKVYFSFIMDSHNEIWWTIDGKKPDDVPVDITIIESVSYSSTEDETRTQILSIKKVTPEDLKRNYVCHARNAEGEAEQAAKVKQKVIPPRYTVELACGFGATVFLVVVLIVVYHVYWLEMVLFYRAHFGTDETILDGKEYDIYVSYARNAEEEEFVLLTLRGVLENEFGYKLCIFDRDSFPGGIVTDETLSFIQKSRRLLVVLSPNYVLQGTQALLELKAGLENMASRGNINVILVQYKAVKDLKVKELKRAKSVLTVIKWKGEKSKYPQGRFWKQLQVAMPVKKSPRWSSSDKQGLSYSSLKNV
T3 sequence (Q61730 21-570): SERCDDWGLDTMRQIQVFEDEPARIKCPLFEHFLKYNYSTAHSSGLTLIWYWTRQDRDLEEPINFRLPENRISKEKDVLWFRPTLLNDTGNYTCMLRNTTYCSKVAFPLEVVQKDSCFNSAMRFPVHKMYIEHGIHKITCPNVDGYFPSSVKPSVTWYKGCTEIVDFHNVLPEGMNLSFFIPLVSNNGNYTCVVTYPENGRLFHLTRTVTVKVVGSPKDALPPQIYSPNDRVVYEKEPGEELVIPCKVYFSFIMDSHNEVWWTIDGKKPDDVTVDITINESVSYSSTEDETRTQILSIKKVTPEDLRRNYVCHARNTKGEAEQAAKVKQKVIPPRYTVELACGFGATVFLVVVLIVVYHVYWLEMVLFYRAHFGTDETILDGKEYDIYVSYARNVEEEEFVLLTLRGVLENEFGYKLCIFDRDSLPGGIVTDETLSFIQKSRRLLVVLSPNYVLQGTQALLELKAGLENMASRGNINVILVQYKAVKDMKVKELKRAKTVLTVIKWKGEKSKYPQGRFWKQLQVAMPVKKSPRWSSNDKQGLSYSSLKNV

| competition for binding, bin (1) (recombinant human IL1RAP) | binding to 293 cells expressing rat IL1RAP (rat IL1RAP) | EC50 against IL-1α (IL-1α signaling) | EC50 against IL-1β (IL-1β signaling; serial dilution of antibody, reporter assay) | competition for binding, bin (2) (recombinant human IL1RAP) | binding to 293 cells expressing mouse IL1RAP (mouse IL1RAP) | Molecule | binding to Karpas 299 by flow cytometry (Karpas 299) | binding to MOLT3 by flow cytometry (MOLT3) | binding to EOL-1 by flow cytometry (EOL-1) | binding to DMS79 by flow cytometry (DMS79; primary antibody 1 ug/ml) | binding to IL1RAP positive cell line Karpas 299 (Karpas 299; flow cytometry, FIG. 2) | inhibition of IL-33 signaling (IL-33 signaling) | binding to H69 by flow cytometry (H69) | inhibition of IL1R1 / IL-1 signaling (IL-1β signaling) | binding to IL1RAP positive cell line EOL1 (EOL-1; flow cytometry, FIG. 2) | binding to IL1RAP negative cell line DMS79 (DMS79; flow cytometry, FIG. 2) |
| --- | --- | --- | --- | --- | --- | --- | --- | --- | --- | --- | --- | --- | --- | --- | --- | --- |
| competed with each other | bind | – | – | – | – | 34C11_21B2: human anti-IL1RAP antibody, VH SEQ ID NO: 40, VL SEQ ID NO: 44 (antibody, V domains shown) VH: EVQVVESGGGLVQPGGSLRLSCAASGFTFRSYWMSWVRQAPGKGLEWVANIKQDGSERHYVDSVKGRFTISRDNAKTSLYLQMSSLRAEDTAVYYCAREGYFGSGYFDYWGQGTLVTVSS VL: DIQMTQSPSTLSASVGDRVIITCRASQSISRGLAWYQQKPGKAPKLLIYKASNLESGVPSRFSGSGSGTEFTLTISSLQPDDFAAYYCQQYSYYSHTFGQGTKLEIK | (+++) | (+) | (+++) | – | – | – | – | – | – | – |
| – | – | – | – | – | – | 38G11_28A2: human anti-IL1RAP antibody, VH SEQ ID NO: 151, VL SEQ ID NO: 154 (antibody, V domains shown) VH: EVQLVESGGGLVQPGGSLRLSCAASGFTFSSYWMSWVRQAPGKGLEWVANIKQDGSEKHYVDSVKGRFTISRDNAKNSLYLQMNSLRAEDTAVYYCAREGYFGSGYFDYWGQGTLVTVSS VL: DIQLTQSPSFLSASVGDRVTITCRASQGISSYLAWYQQKPGKAPKLLIYAASTLQSGVPSRFSGSGSGTEFTLTISSLQPEDFATYYCQQYSFYSHTFGQGTKLEIK | (++) | – | (++) | (−) | – | – | – | – | – | – |
| – | – | subnanomolar | subnanomolar | competed with each other | – | 44E5_15C5: human anti-IL1RAP antibody, VH SEQ ID NO: 71, VL SEQ ID NO: 73 (antibody, V domains shown) VH: QVQLVESGGGVVQPGRSLRLSCAASGFTFRSHGMHWVRQAPGKGLEWVAVIWYDGSSDYYADSVKGRFTISRDNSKNTLFLQMNSLSAEDTAVYYCARENVYGSGWFFDYWGQGTLVTVSS VL: EIVMTQSPATLSVSPGERASLSCRASQSVGSNLAWYQQKPGQAPRLLIFGASTRATGIPARFSGSRSGTEFTLTISSLQSEDFALYYCQQYNNWPPWTFGQGTKLEIK | – | – | (+++) | – | specific binding | partially inhibit | (−) | potent inhibition | specific binding | lack of binding |
| competed with each other | bind | – | – | – | bind weakly | 24G3_17C5: human anti-IL1RAP antibody, VH SEQ ID NO: 90, VL SEQ ID NO: 93 (antibody, V domains shown) VH: EVQLLESGGGLVQRGGSLRLSCAASGFTFSSYAMSWVRQAPGKGLEWVSSISGSGDSTNYADSVKGRFTISRDNSKNTLHLQMNSLRAEDTAVYYCVRDYYYGMDVWGHGTTVTVSS VL: EIVLTQSPATLSLSPGERATLSCRASQSVNSYLAWYQQKPGQAPRLLIYDASNRATGIPARFSGSGSGTDFTLTISSLEPEDFAVYYCQQRSYWPITFGQGTRLEIK | (++) | – | (++) | – | – | – | – | – | – | – |
| competed with each other | – | – | – | – | bind weakly | 39G1_21C4: human anti-IL1RAP antibody, VH SEQ ID NO: 56, VL SEQ ID NO: 60 (antibody, V domains shown) VH: QVQLQESGPGLVKPSETLSLTCAVSGYSASGVYYWGWIRQPPGKGLEWIGNIYHSGSTYYNPSLERRVSISLDTSKNHFSLRLNFVTAADTAVYYCARDRFDAFDIWGQGTMVTVSS VL: EIVMTQSPATLSVSPGERATLSCRASQSINNILAWYQQKPGQAPRLLIYGASTRATGIPARFSGSGSGTEFTLTISSLQSEDFAVYYCQQYNNWPLTFGGGTKVEIK | – | (+) | (+++) | – | – | do not inhibit | – | do not inhibit | – | – |
